Article PMC5077683
Where no end group is shown, it is not given here. The star is where a group is joined. Prodan = Prodan fluorogenic core conjugated to Cys (C*)

Tests used:
[1] = molecular target: glutathione S-transferase (GST); assay: ITC
[2] = molecular target: glutathione S-transferase (GST); assay: other fluorescence titration

Kd [1]: 2.4 µM
Kd [2]: 5.2 µM
Binder: NTVSC(Prodan)HGF [Prodan-evolver NTVSC*HGF (1)]
